Here are results for six sequences from the supplement of paper PMC12455559.

A short description of data set [1]: PET hydrolysis, aromatic products released after 48 h (umol product/mg enzyme); higher = more PET depolymerization activity. An outline of the steps:
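Reactions ran in sealed plates without shaking for 48 h at 40 or 60 °C. Each held 3.5 mg amorphous PET film or crystalline PET powder, 450 μL buffer and 5 μg (50 μL) of tagless, SUMO-cleaved, nickel-purified candidate enzyme. Buffers were 50 mM NaCitrate at pH 4.5 or 5.5, 50 mM NaPhosphate at pH 6.5 or 7.5, and glycine at pH 8.5. The supernatant's aromatic product, read at 260 and 280 nm against buffer blanks, gives PET hydrolysis activity per mg enzyme.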

A short description of data set [2]: melting temperature (DSF); higher = more thermostable. An outline of the steps:
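Candidate enzymes were expressed in E. coli C41(DE3), purified on nickel beads and released by SUMO protease cleavage. For differential scanning fluorimetry, 45 μL enzyme (0 to 0.3 mg/mL) was mixed with 5 μL 5X Sypro Orange in sealed PCR plates on a Bio-Rad CFX96 instrument. Fluorescence was read from 25 °C in steps of 0.3 °C per cycle (ramp 0.3 °C/s) for 250 cycles. The read-out is melting temperature.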

A short description of data set [3]: purified protein yield per well (BCA); higher = higher soluble expression. An outline of the steps:
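The measured quantity is purified protein yield per well, determined with the Pierce Rapid Gold BCA kit. Anything below 25 ug (0.1 mg/mL) lies under the detection threshold. Enzymes were expressed in E. coli C41(DE3) in 2 mL autoinduction cultures with 100 µg/mL kanamycin at 37 °C for 2 h, then 18 °C for 40 h, and purified on an OT-2 robot using Ni-charged magnetic beads and SUMO protease release.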

Setting [4] is: substrate: cryPow, 40 °C, pH 4.5.
[5] abbreviates: substrate: cryPow, 40 °C, pH 5.5.
Setting [6] is: substrate: cryPow, 40 °C, pH 6.5.
Where [7] appears, read: substrate: cryPow, 40 °C, pH 7.5.
Setting [8] is: substrate: cryPow, 60 °C, pH 4.5.
The mark [9] stands for this setting: substrate: cryPow, 60 °C, pH 5.5.
Setting [10] is: substrate: cryPow, 60 °C, pH 6.5.
The mark [11] stands for this setting: substrate: cryPow, 60 °C, pH 7.5.
Where [12] appears, read: substrate: aFilm, 40 °C, pH 4.5.
The mark [13] stands for this setting: substrate: aFilm, 40 °C, pH 5.5.
Setting [14] is: substrate: aFilm, 40 °C, pH 6.5.
[15] abbreviates: substrate: aFilm, 40 °C, pH 7.5.
[16] abbreviates: substrate: aFilm, 60 °C, pH 4.5.
The mark [17] stands for this setting: substrate: aFilm, 60 °C, pH 5.5.
The mark [18] stands for this setting: substrate: aFilm, 60 °C, pH 6.5.
The mark [19] stands for this setting: substrate: aFilm, 60 °C, pH 7.5.

± gives the standard deviation of the averaged measurements. A value given as a limit tells only on which side of the number the result lay.

Regarding “MPPPDSGAAAHERVHAEPSDPATVGSAGGNPFARGPDPTLASVAAEFGPFATTQLSVPPGHGFNGGYVYYPTDASPTFGAVAIVPGYTALFADEEAWMGPRLASFGFVVIGIETNSREDWDRARGAQLLAALDYVTQHSTVRTRVDSSRLAVIGHSMGGGGAFAAATRRPSLKAVVGLAPYFPSGDLATVRVPTLIIGGQRDTTVTPSYLDDLYATLPTRTPSAYLMLADADHLFPTRPNPVEMRLLIPWLKIFVDRDTRYVRFLCPLADRSGIAQYRVTCPLVPPA [TEP003]”, the PET hydrolysis in data set [1] (setting [4]), in data set [1] (setting [5]), in data set [1] (setting [6]), in data set [1] (setting [7]), in data set [1] (setting [8]) and in data set [1] (setting [9]) was under 3 throughout. In addition, the PET hydrolysis in data set [1] (setting [10]) and in data set [1] (setting [11]) was under 3 in each case. For the same sequence, in data set [2], the melting temperature is 67.6 C. For the same sequence, the “purified protein yield per well” value in data set [3] was found to be 152 µg.

In the case of “MPPPPPPPPPVQTVTVEPGYGFGGGTIYYPQESTGRLPVVAAVPGFTETQEAVAWYGPLLARRGNIVITIDTISPTNAPKTRADQALAAIDYVVTQSAVSDIADASRTAVMGHSMGGGASLFAALKRPTLKAIVPLAPWARTTDFSGVAVPTLIVGCENDGIAAVGTYAEPFYESIPATTPKAYLEMAGGNHYCTNSEDPVIAGYVSAWTDRFLKGDTTASSRLCPPSPVGPISEYRSNCPY [TEP189]”, the PET hydrolysis in data set [1] (setting [4]) was under 3; in data set [1] (setting [5]), 8; in data set [1] (setting [6]), 56; in data set [1] (setting [7]) it was 62; in data set [1] (setting [8]), under 3; in data set [1] (setting [9]), under 3. Further, the PET hydrolysis in data set [1] (setting [10]) was determined as 23; in data set [1] (setting [11]), 22. The melting temperature in data set [2] was 67 C. Further, the “purified protein yield per well” value in data set [3] worked out at 153 µg.

With “MRPGRVCPDSCGCRPSSRRKDATIVQQLRNETIGSPSPHRAPRRFRPRLVRAGLAALLAAGGLFTAQSGSAGAAQNPYERGPAPTVSSIEAPRGPYAVSETRVSSLGVTGFGGGTLYYPTTTRDGTFGAVAISPGYGGTQSSISWLGPRLASQGFVVFTIDTLSTLDQPAGRGGQLLAALDYLTQRSSVRDRVDSGRLGVMGHSMGGGGSLEAAKSRPALQAAIPLTGWNLDKTWQELRTPTLVVGADGDTIAPVSSHSEPFYESLAGSLDKAYLELNGASHFTPNSSNTTIAKYSVSWLKRFIDNDLRYEQFLCPLPRPGATIEEYRGNCPHTS [TEP099]”, the PET hydrolysis in data set [1] (setting [4]), in data set [1] (setting [5]), in data set [1] (setting [6]), in data set [1] (setting [7]), in data set [1] (setting [8]) and in data set [1] (setting [9]) was under 3 throughout. The PET hydrolysis in data set [1] (setting [10]) and in data set [1] (setting [11]) was under 3 in each case. The sequence also registered a melting temperature in data set [2] of 50.2 C. In addition, the “purified protein yield per well” value in data set [3] amounted to 68.5 µg.

As for “NPYERGPAPTTSSIEASRGSFATSTTTVSRLAVSGFGGGTIYYPTSTASGTFGAVSIAPGFTATQSSMAWLGPRLASQGFVVFTIDTITTSDQPDSRGRQLLSSLDYLTQQSSVRSRIDSSRLGVVGHSMGGGGTLEAARSRPSLQAAVPLTGWNLTKSWSTVRVPTLVVGAQADTVAPVASHSIPFYTSLPSSLDKAYLELRGASHFAPNSANTTIAKYTLSWLKRFIDDDTRYEQFLCPIPGTSTTISDYRGNCPHAG [ESM140]”, the PET hydrolysis in data set [1] (setting [4]) is under 3; in data set [1] (setting [5]), 5; in data set [1] (setting [6]), 22; in data set [1] (setting [7]), 33; in data set [1] (setting [8]), under 3; in data set [1] (setting [9]), 4. The PET hydrolysis amounted to 8 in data set [1] (setting [10]) and 9 in data set [1] (setting [11]). Moreover, in data set [2], the melting temperature was determined as 51.7 C. In addition, the “purified protein yield per well” value in data set [3] came to 187 µg.

Turning to “NPYERGPDPTTASIEASRGSFATSTVTVSRLAVSGFGGGTIYYPTTTTAGTFGAISIAPGFTATQSSMAWLGPRLASQGFVVFTIDTITTSDQPDSRGRQLLASLDYLTQQSSVRSRIDSSRLGVVGHSMGGGGTLEAARSRPSLQAAVPLTGWNLTKNWSTLRVPTLVVGAQSDTIAPVASHSIPFYTSLPSTLDRAYLELRGASHFAPNTSNTTIAKYTLSWLKRFIDNDTRYEQFLCPIPSSSLSISDYRGNCPHNG [ESM167]”, the PET hydrolysis in data set [1] (setting [12]) was under 3; in data set [1] (setting [13]) it was 4; in data set [1] (setting [14]), 6.5 ± 0.71; in data set [1] (setting [15]) it was 7.5 ± 0.71; in data set [1] (setting [16]), under 3; in data set [1] (setting [17]), under 3. Further, the PET hydrolysis in data set [1] (setting [18]) was 2 ± 2.8; in data set [1] (setting [19]), 2.5 ± 3.5; in data set [1] (setting [4]), 2 ± 2.8; in data set [1] (setting [5]), 12.5 ± 2.1; in data set [1] (setting [6]), 21 ± 4.2; in data set [1] (setting [7]), 35.5 ± 0.71. Besides, the PET hydrolysis is under 3 in data set [1] (setting [8]), 10.5 ± 2.1 in data set [1] (setting [9]), 20 ± 1.4 in data set [1] (setting [10]) and 26 ± 1.4 in data set [1] (setting [11]). Besides, the melting temperature in data set [2] worked out at 55.3 C. The “purified protein yield per well” value in data set [3] was determined as 254 µg.

Take “QAPDRTALARTGPYQVAYYTQLPPAAEFSAATLFFPANKAQAFGGVVIAPGYTEKQVNVQWWGYHLASHGYAVLVLDTNDPEEYPDRRADALMAGVAVLRGENTRMGSTLRGKILEGRIALMGHSMGGGGTLLAANGHSDQLKTIIPFTPWLPGADFSAVSVPTLVLAGEIDRIAAVKDHAWPHYESLTGAVPRMYLEVKGGNHYIANSMTDREDRNPNIDVHDLVGSMVVAWLKTFLDDDESYRELVFGDLPEADRVRISRLEFVE [TEP006]”: the PET hydrolysis in data set [1] (setting [12]), in data set [1] (setting [13]), in data set [1] (setting [14]), in data set [1] (setting [15]), in data set [1] (setting [16]) and in data set [1] (setting [17]) was under 3 each time. The PET hydrolysis in data set [1] (setting [18]), in data set [1] (setting [19]), in data set [1] (setting [4]), in data set [1] (setting [5]), in data set [1] (setting [6]) and in data set [1] (setting [7]) was under 3 throughout. In addition, the PET hydrolysis in data set [1] (setting [8]), in data set [1] (setting [9]), in data set [1] (setting [10]) and in data set [1] (setting [11]) was under 3 in each case. The sequence further gave a melting temperature in data set [2] of 53.5 C. For the same sequence, the “purified protein yield per well” value in data set [3] turned out to be 215 µg.
